Data as given in US20030148956A1 (PROCTER AND GAMBLE, published 2003).
Ends that are not written are not given here.

T1: corticotropin releasing factor 2 receptor
T1 sequence (Q13324 whole entry, species assumed, looked up): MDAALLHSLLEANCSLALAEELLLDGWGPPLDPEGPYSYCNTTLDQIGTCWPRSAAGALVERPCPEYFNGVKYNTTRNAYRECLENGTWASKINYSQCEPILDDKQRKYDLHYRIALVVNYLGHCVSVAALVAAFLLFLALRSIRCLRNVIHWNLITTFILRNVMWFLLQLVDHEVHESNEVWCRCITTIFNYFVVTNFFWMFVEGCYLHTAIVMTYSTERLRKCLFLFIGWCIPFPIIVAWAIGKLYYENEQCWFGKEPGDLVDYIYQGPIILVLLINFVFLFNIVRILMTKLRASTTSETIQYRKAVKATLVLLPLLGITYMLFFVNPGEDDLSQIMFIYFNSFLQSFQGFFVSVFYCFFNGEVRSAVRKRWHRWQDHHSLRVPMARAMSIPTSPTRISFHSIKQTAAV


Tests used:
[1] = biological target: corticotropin releasing factor 1 receptor; assay: cell-based or functional assay
[2] = biological target: T1, corticotropin releasing factor 2 …; assay: cell-based or functional assay

CRF1R EC50 [1] [nM]	CRF1R Emax % [1] [%]	CRF2R EC50 [2] [nM]	CRF2R Emax % [2] [%]	Binder
1000	7.85	100	19.3	NDDPPISIDLPLQLLRNMIEMARIENEREQAGLNAKYLAEV-NH2 [SEQ ID NO 270]
1000	44.3	100	77.3	NDDPPISIDLPLILLRNMIEMARIENEREQAGLNAKYLAEV-NH2 [SEQ ID NO 269]
1000	27.7	100	100	ZGPPISIDLPTWLLRKVIEIEKQEKEKQQAANNRLLLDTI (C-terminal amide) [SEQ ID NO 284]
1000	59.5	35.5	95.2	ZGPPISIDLPVALLRKMIEIEKQEKEKQQAANNRLLLDTI (not fully specified; C-terminal amide) [SEQ ID NO 305]
582	100	27.2	100	ZGPPISIDLPAALLRKMIEIEKQEKEKQQAANNRLLLDTI (not fully specified; C-terminal amide) [SEQ ID NO 303]
116	100	19.3	92.5	ZGPPISIDLPHALLRKMIEIEKQEKEKQQAANNRLLLDTI (not fully specified; C-terminal amide) [SEQ ID NO 304]
1000	27.2	100	88.3	ZGPPISIDLPIILLRKVIEIEKQEKEKQQAANNRLLLDTI (C-terminal amide) [SEQ ID NO 297]
608	97.7	27.6	100	ZGPPISIDLPIALLRKMIEIEKQEKEKQQAANNRLLLDTI (not fully specified; C-terminal amide) [SEQ ID NO 306]
520	95.3	40.3	87	ZGPPISIDLPQILLRKVIEIEKQEKEKQQAANNRLLLDTI (C-terminal amide) [SEQ ID NO 293]
366	100	36.2	100	ZGPPISIDLPQALLRKMIEIEKQEKEKQQAANNRLLLDTI (not fully specified; C-terminal amide) [SEQ ID NO 302]
690	84.1	50.5	88.4	ZGPPISIDLPTALLRKMIEIEKQEKEKQQAANNRLLLDTI (not fully specified; C-terminal amide) [SEQ ID NO 301]
1000	7.95	17.1	100	IVLSLDVPIGLLQKVIEIEKQEKEKQQATTNARILARV-NH2 [SEQ ID NO 300]
815	80.7	48.1	69	NDDPPISIDLPLYLLRNMIEMARIENEREQAGLNAKYLAEV-NH2 [SEQ ID NO 271]
100	4	6.66	65	HHHHHHIVLSLDVPIGLLQILLEQARARAAREQATTNARILARN-NH2 [SEQ ID NO 296]
1000		11.3	100	ZGPPISIDLPYQLLRKMIEIEKQEKEKQQAANNARLLAR (C-terminal amide) [SEQ ID NO 287]
838		14.7	100	ZGPPISIDLPYQLLRKMIEIEKQEKEKQQAANNARLLAR (C-terminal amide) [SEQ ID NO 288]
1000	51.1	23.3	100	ZGPPISIDLPFQLLRKVIEIEKQEKEKQQAANNAELLAEI (C-terminal amide) [SEQ ID NO 272]
1000	38.3	46.6	100	ZGPPISIDLPFQLLRKVIEIEKQEKEKQQAANNANLLANI (C-terminal amide) [SEQ ID NO 275]
1000	75.7	22.1	100	ZGPPISIDLPFQLLRKVIEIEKQEKEKQQAANNAQLLAQI (C-terminal amide) [SEQ ID NO 276]

CRF1R EC50 [1] [nM]	CRF1R Emax % [1] [%]	CRF2R EC50 [2] [nM]	CRF2R Emax % [2] [%]	Binder
1000	39.9	28.2	100	ZGPPISIDLPFQLLRKVIEIEKQEKEKQQAANNAHLLAHI (C-terminal amide) [SEQ ID NO 277]
1000	19.2	13.5	92.5	ZGPPISIDLPYQLLRKVIEIEKQEKEKQQAANNARLLARI (C-terminal amide) [SEQ ID NO 286]
1000	59.3	31.3	100	ZGPPISIDLPFQLLRKVIEIEKQEKEKQQAANNAQLLAHI (C-terminal amide) [SEQ ID NO 273]
1000	13.6	100	100	ZGPPISIDLPQILLRKVIEIEKQEKEKQQAANNARLLARI (C-terminal amide) [SEQ ID NO 294]
1000	10.2	46.4	71.5	ZGPPISIDLPQILLRKVIEIEKQEKEKQQAANNALLLATI (C-terminal amide) [SEQ ID NO 299]
1000	20.1	82	98.8	ZGPPISIDLPIFLLRKMIEIEKQEKEKQQAANNALLLATI (C-terminal amide) [SEQ ID NO 298]
635	100	10.6	72	ZGPPISIDLPYQLLRKVIEIEKQEKEKQQAANNRLLLDTI (C-terminal amide) [SEQ ID NO 283]
1000	6.4	100	100	ZGPPISIDLPIILLRKMIEIEKQEKEKQQAANNARLLARI (C-terminal amide) [SEQ ID NO 290]
1000	93	13.1	100	ZGPPISIDLPFQLLRKVIEIEKQEKEKQQAANNARLLARI (C-terminal amide) [SEQ ID NO 279]
1000	12.2	100	78.8	ZGPPISIDLPIFLLRKVIEIEKQEKEKQQAANNARLLARI (C-terminal amide) [SEQ ID NO 281]
1000	11.8	100	82.3	ZGPPISIDLPIFLLRKVIEIEKQEKEKQQAANNALLLATI (C-terminal amide) [SEQ ID NO 280]
1000	69.5	12.2	97.3	ZGPPISIDLPYWLLRKMIEIEKQEKEKQQAANNARLLARI (C-terminal amide) [SEQ ID NO 289]
1000	48.7	19.6	100	ZGPPISIDLPFQLLRKVIEIEKQEKEKQQAANNARLLDTI (C-terminal amide) [SEQ ID NO 278]
1000	4.75	100	63.8	ZGPPISIDLPTWLLRKVIEIEKQEKEKQQAANNARLLARI (C-terminal amide) [SEQ ID NO 291]
1000	5.3	55	67.6	ZGPPISIDLPIILLRKVIEIEKQEKEKQQAANNARLLARI (C-terminal amide) [SEQ ID NO 295]
1000	11.1	13.9	97.1	ZGPPISIDLPQILLRKMIEIEKQEKEKQQAANNARLLARI (C-terminal amide) [SEQ ID NO 285]
1000	7	100	86.1	ZGPPISIDLPTWLLRKMIEIEKQEKEKQQAANNARLLARI (C-terminal amide) [SEQ ID NO 292]
508	80.9	13.8	100	ZGPPISIDLPFQLLRKVIEIEKQEKEKQQAANNAKLLAKI (C-terminal amide) [SEQ ID NO 274]
1000	21.8	25.8	60.8	ZGPPISIDLPIFLLRKMIEIEKQEKEKQQAANNARLLARI (C-terminal amide) [SEQ ID NO 282]
